Protein production data for 26 sequences are collected here from a protein production outcome set (Wang et al. 2014).
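Further: failed if final PepcDB status was selected cloned or expressed and not failed if soluble or beyond.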

The nature of the data set: label from the status in PepcDB records.
For the sequence “MELVDRYIAAVQRELPEDKRQEIGRELKANICDQLDALAEHAELTESQIADVLQQMGHPAQVAQQFVPPTPIVASEDISLFKHTLVMVLGVLFVLQVVSGATQWLGSTEGSLFGFIRHIASGFIVDACFAFTAILLSFWSISAQGKVMFGGRCQHWQPQNLPNVGPDWQHISLSDVFSDLATYLFLLLLIWNNLWMSADQLAARSVIFSANAQQLLQWFSPVILLSLLNTLWQLLRRLWTAPLLLANAGVNLAYALCLVFLAFSSPLLQYQGGEVEGIFTLQQLDTWLGHALLVTALFPGYECIRDMLRWRKLTAH”, the protein production entry is “failed”.

Consider “MEQHQVWAYQTKTHSVTLNSVDIPALAADDILVQNQAIGINPVDWKFIKANPINWSNGHVPGVDGAGVIVKVGAKVDSKMLGRRVAYHTSLKRHGSFAEFTVLNTDRVMTLPDNLSFERAAALPCPLLTAWQAFEKIPLTKQREVLIVGFGAVNNLLTQMLNNAGYVVDLVSASLSQALAAKRGVRHLYREPSQVTQKYFAIFDAVNSQNAAALVPSLKANGHIICIQDRIPAPIDPAFTRTISYHEIALGALHDFGDRQDWQILMQQGEALLTLIAQGKMEIAAPDIFRFEQMIEALDHSEQTKLKTVLTLNE”, for which the protein production result is “not failed”.

In the case of “MSKLAQIVQKLKKQGIEAAVLSDPVSINYLTGFYSDPHERLMFLFLFADQEPLLFLPELDALRAKSILDISVTGYLDFENPLEKIKTLLPKTNYSKIALEFDNLNVTKFKGLETIFSGQFTNLTPLINRMRLIK”, the protein production entry is “failed”.

Consider “MLVALITLAFIHFCALITPGPDFFLVSQTAVSRSRKEAMLVVAGITAGVMFWASLALMGLNIIFEKMAWLKQGLLIAGGLYLCWLGYQMLRSAFSKNQQEEVTTVELPKAPYLFFMKGLLTNLSNPKAVIYFGSVFSLFLANPQLDQVHWLLFIIVSVETILWFCFVTFIFSLPSFRAAYRNFSKWIDGISGGIFTVFGIFLIGNR”, for which the protein production entry was “failed”.

With “MIAAYENSKWEPVKWENDMHCAVKIQDKNQWRRGQIIRMVTDTLVEVLLYDVGVELVVNVDCLRKLEENLKTMGRLSL”, the protein production entry is given as “not failed”.

On to “VAYLGPAGTFTEEALYKFADAGVFGDGEIEQLPAKSPQEAVDAVRHGTAQFAVVAIENFVDGPVTPTFDALDQGSNVQIIAEEELDIAFSIMVRPGTSLADVKTLATHPVGYQQVKNWMATTIPDAMYLSASSNGAGAQMVAEGTADAAAAPSRAAELFGLERLVDDVADVRGARTRFVAVQAQAA”, for which the protein production result was “failed”.

As to “MNGDDDAKRSGKRLPDQPAKTQRTKGPVSFPSTVSLASLCEEGATASSNLDLLASCSSVQGSEDCDCEGHQPESERRLKRPRQAPWAAEPANQRRPPFDHGNSESIPPAGVQSQGTSASNGTDSSERKSTEATWSRQSVDCSTAEKLAGNLCANQVSAERSGQFYTKVNELLHDLHKERVSRQCRSPHES”, the protein production result is “failed”.

As for “MTNAIQDRLPRTTNSVEDTMALGARIAQGLSPGAVVALYGDLGTGKTHFVKGVAQGLGLPPAEVRSPTFTILAVHDDGDRPLYHFDAYRVQTPDEFVELGFETYVHGDGLTCIEWAGRVADLLPADTVPLQFHHVAPSTRRITLGAPLEHHHHHH”, the protein production result is “not failed”.

On to “MSTDILSAIGLTIIFVGLVLVIVGIVSGIIKSSKKERNENQREETKTEYGGVIFIGPIPIVFGSNKDMAKMALIIGVIMVVLIIAFVVLSYVV”, for which the protein production entry is recorded as “failed”.

Regarding “MRIVIVGGSKFGVATAEQLIDKGHEVVLIDKNREKLEALTDRLDCGMIQGDGSSPKVLREAYAEENDVLVALTNASDDNILTALVARSVGFGRVIPQIVEAELLDVCVELDLKDTITPHVTVARSICRALEEDTELARDTNLTGDLRLLRLSVTSQLSGCSLSELDLPDECRAVAIVHEDREKFADPDAVVSEGEDILFAVHEDRVADLKALFATS”, the protein production result was “failed”.

On to “MADTGEVQFMKPFISEKSSKSLEIPLGFNEYFPAPFPITVDLLDYSGRSWTVRMKKRGEKVFLTVGWENFVKDNNLEDGKYLQFIYDRDRTFYVIIYGHNMC”, for which the protein production result was “not failed”.

Turning to “MGRKIVFFDIDGTLLDEQKQLPLSTIEAVRRLKQSGVYVAIATGRAPFMFEHVRKQLGIDSFVSFNGQYVVFEGNVLYKQPLRREKVRALTEEAHKNGHPLVFMDAEKMRASIGDHPHIHVSMASLKFAHPPVDPLYYENKDIYQALLFCRAEEEEPYVRNYPEFRFVRWHDVSTDVLPAGGSKAEGIRMMIEKLGIDKKDVYAFGDGLNDIEMLSFVGTGVAMGNAHEEVKRVADFVTKPVDKEGIWYGLKQLQLIR”, the protein production result is “not failed”.

“MKVGVIGASEMAGSAIYKLAKQNLEIDVTGIVRHESKAKKVLGDDAKLIVGDIFALSDNILDKFDVIIDAFGTDPKNAEEHVILAKKLINLVRKNKIRVIFILGAGSLHTGDDEHLVVDDIAQMDNADTWINTPRQQLKELEYLNSIDDVDWLGISPALQFEAGPATEYIEGTDELLYNKDGDSKLTSGTMATVVIKETVDSVHHQERITIANALEHHHHHH”: the protein production entry was “not failed”.

As for “MQARWIGNMMFHVRTDSNHDVLMDTKEEVGGKDAAPRPLELVLTGLMGCTGMDVVSILRKMKVIDQMKDFRIEIEYERTEEHPRIFTKVHLKYIFKFDGEPPKDKVEKAVQLSQEKYCSVSAILKCSSKVTYEIVYEN”, the protein production entry is reported as “not failed”.

For the sequence “AIAAEAVLRVARRQLSQRGGSGAPILLRQMFEPVSCTFTYLLGDRESREAVLIDPVLETAPRDAQLIKELGLRLLYAVNTHCHADHITGSGLLRSLLPGCQSVISRLSGAQADLHIEDGDSIRFGRFALETRASPGHTPGCVTFVLNDHSMAFTGDALLIRGCGRTDFQQGCAKTLYHSVHEKIFTLPGDCLIYPAHDYHGFTVSTVEEERTLNPRLTLSCEEFVKIMGNLNLPKPQQIDFAVPANMRCGVQTPTA”, the protein production entry is on record as “failed”.

As to “MTNKYIKLCFIDLVDLKKMSKQNLKIVLFHGFMAREHMQRHWLCYLKKLGYSDIHLYGHLSSAEMLAKQIHSTQNSAQKLVLFGYSQGGFQAVKVAQAFEQLQLPVDLLITIAAGGKGRLLPKQWHYNPRHIPQNVVKSLNFFSLSDSLGTDRCYRDNLIQASHHDQCIENIIFDQSAQVGHIELSRCYSKQRIHGLVKQHLISRIEYELSILE”, the protein production entry is listed as “failed”.

For “MYLQCYINEKGEKVYTTKKESPLGLATESAHPARFSPDDKYSKQRVLLKKRFGLLPTQNAPLQY”, the protein production entry is listed as “failed”.

Turning to “MATAEAQIGVNRNLQKQDLSNLDVSKLTPLSPEVISRQATINIGTIGHVAHGKSTVVKAISGVQTVRFKNELERNITIKLERLSEKKIKNLLTSKQQRQQYEIKQRSMLRHLAELRRHSRFRRLCTKPASSSMPASTSSVDRRTTRRSTSQTSLSPSNSSGYGSVFGCEEHDVDKIPSLNGFAKLKRRRSSCVGAPTPNSKRSKNNMGVIAKRPPKGEYVVERIECVEMDQYQPVFFVKWLGYHDSENTWESLANVADCAEMEKFVERHQQLYEIYIAKITTELEKQLEALPLMENITVAEVDAYEPLNLQIDLILLAQYRAAGSRSQREPQKIGERALKSMQIKRAQFVRRKQLADLALFEKRMNHVEKPSPPIRVENNIDLDTIDSNFMYIHDNIIGKDVPKPEAGIVGCKCTEDTEECTASTKCCARFAGELFAYERSTRRLRLRPGSAIYECNSRCSCDSSCSNRLVQHGRQVPLVLFKTANGSGWGVRAATALRKGEFVCEYIGEIITSDEANERGKAYDDNGRTYLFDLDYNTAQDSEYTIDAANYGNISHFINHSCDPNLAVFPCWIEHLNVALPHLVFFTLRPIKAGEELSFDYIRADNEDVPYENLSTAVRVECRCGADNCRKVLF”, the protein production entry is given as “failed”.

Regarding “MASILFFEKPGCQNNTRQKAWLELSGHTVDAVNILEYAWTKEELSLYLGENPISACFNPAAPEVKTGSMKPELLNKEDALDAMIKKPLLIRRPLLKIGNHYLQGFDTAVLRTIIS”, the protein production result is “failed”.

Consider “MVMAPLPPVESLSLRQAIAQMIVVRGAGYLFDYERPYPQWEADQTTLQRWIEAGIGGVILLGGSAAEVAQKTKQLQSWAEIPLLIAADIEEGVGQRFRGATEFPPPMAFGEIWRTDPHQAIALAETMGATTAQEALSLGINWVLAPVLDVNNNPHNPVINIRAFGETPDQVSALGTAFIRGAQQYAVLTTAKHFPGHGDTATDSHLALPTISHDDTRLNTVELPPFKAAIQGGVDAVMNAHLMIPAWDQQYPATLSPAILTGQLRHKLGFKGLIVTDALVMGGITQFAAPDTVVVQAIAAGADILLMPPDVDGAIIAIETAIKTGQLSESRIYESVERIWQAKQKILTATPSTFPQGISGDRPETRKTVAMVLERATKHQKSLVKISSFPDNFARNLIVVDSVLKSPFLRPNCPAIAIPQRHGYAAEIVELKTLPRLQLEAIPTLIQCFLRGNPFTEKLADPIDVLQKIAAQIPLQGVIFYGSPYFLEALQTTLPEIPWWFSYGQMAIAQAEICTSLWEEAPQAAPSAAEFI”, for which the protein production entry is given as “not failed”.

Turning to “MRPIPEGYEAVFETVVTPEMTVRFEELGPVHPVYATYWMVKHMELAGRKIILPFLEEGEEGIGSYVEARHLASALPGMRVRVVARHEKTEGNRVYARVEAYNELGDLIGVGRTEQVILPKAKVEALFRRLKERWEAERSPS”, the protein production result is listed as “not failed”.

Consider “MDWTMISGSRDESLHAARDYWRRLNESECFDIEGIEAPPGAIALIPYDCQLPNSFHPLPLWVKLYASAGLHRFNMLEVLVNERSVGKLNIIVPIARPKGVTTNERFIPCDCFSVDDKLPQWPSHDSFNDRKRFYSVKESELQNNDWINLYLELVLCAIQKVRISDSDLSKLKIVKAVIETKEDMVPPNERLNAKTAVVYITFKGLANARIAAGEHYERKAIIRRIFNEHTGHLSLLGDLIGEKKFVNIDPVTYFNSPAYLEDITHELPPESPWMDILAGTGSMDQID”, for which the protein production result is “failed”.

As for “MFLLQQLDHTVKKMKSQLANFFTIINLSCGVFAILFTLQGELRVSLLFITIAAVFDRLDGAAARKFDCASDFGKQLDSLTDIISFGVAPALMIYHAILFDFGYAGALFTVFYIACGAIRLARFNITENHNSFIGLPITAAGCILTLLYLAVGYWPDYTFMFAILILSFLMVSTIRVRKM”, the protein production result is listed as “failed”.

As for “MTMTLSAKDLENISKLAYLNEDSEHSAKLTQEVSAIMDFVDQLKTIDTSQIAPLFHPLALNQRLRPDEVTEAECLAELEAMAPLFEDNLYLVPKVISSDK”, the protein production result is “failed”.

For the sequence “MKLKSYILVGYIISTLLTILVVFWAVQKMLIAKGEIYFLLGMTIVASLVGAGISLFLLLPVFTSLGKLKEHAKRVAAKDFPSNLEVQGPVEFQQLGQTFNEMSHDLQVSFDSLEESEREKGLMIAQLSHDIKTPITSIQATVEGILDGIIKESEQAHYLATIGRQTERLNKLVEELNFLTLNTARNQVETTSKDSIFLDKLLIECMSEFQFLIEQERRDVHLQVIPESARIEGDYAKLSRILVNLVDNAFKYSAPGTKLEVVAKLEKDQLSISVTDEGQGIAPEDLENIFKRLYRVETSRNMKTGGHGLGLAIARELAHQLGGEITVSSQYGLGSTFTLVLNLSGSENKA”, the protein production entry is recorded as “failed”.

Regarding “MVEASFGYEDFIVRMATGLLVGALIGIERERAQLVGKSEKSGSIPGFRSMGFMGLYGSATGYVSSYTASQYGVVFAALIAGLGAATITLLTLLFAYTRMIRLRAMGFTTYVVILLTFVAGLMSGMGLILEGVAVGVIGGLLLASKYPVVRMTRSVSYSELIALMEVAALILVLGPAVYYAGGYIPFIDVFQVYIFFTAIVAVSFTSYIASRIWGVRGFVTSIILGSIVNSEAVVASIASRRDIDRGVVFQAVVAALSVMQLRIAGLGLLALLVGGGFPQGEVVLHFRDNILPWLILLALMTIASIVAWASTLALEKVENKGVIPGTPLQWGVAVRGAVAFLLLTLLFDAASRALSGYTGNIAFLTLSIIGGFISANATLLSLAGLLTRLGADTFTVGILGIALGATFNKILYTRAVGAPPETVKEITKATALMSLLPVFFLILFWLLLQTPTG”, the protein production entry is on record as “failed”.
